The source of these data is US5972678A, “Animal 2-5A dependent RNases” (Cleveland Clinic Foundation, priority 1995, dated 1999).

One data set relates to 2-5A-dependent RNase. Conditions: cited from earlier work.
The test system of the next data set is 2-5A probe. Briefly: 2-5A binding activity of nested 3'-deletion mutants, filter binding assay and uv crosslinking assay. The settings on record: protein expressed in wheat germ extract. The source says:
See Example and Knight et al. 1980). The positions of the P-loop motifs and the lengths of the translation products are indicated. Clone ZB1 encodes for amino acids designated as 1-656 in Table II, except for the last 5 amino acid residues which are Lys, Pro, Leu, Ser, and Gly. Clone ZB2 encodes for amino acids designated as 1-619 in Table II. Clone ZB3 encodes for amino acids designated as 1-515 in Table II. Clone ZB5 encodes for amino acids designated as 1-474 in Table II. Clone ZB9 encodes for amino acids designated as 1-403 in Table II. Clone ZB10 encodes for amino acids designated as 1-365 in Table II. Clone ZB13 encodes for amino acids designated as 1-294 in Table II. Clone ZB14 encodes for amino acids designated as 1-265 in Table II. Clone ZB15 encodes for amino acids designated as 1-218 in Table II.
To further define sequences involved in 2-5A binding, nested 3'-deletions of the murine 2-5A-dependent RNase cDNA, clone ZB1, are constructed, transcribed in vitro, and expressed in a wheat germ extract. […] The levels of 2-5A binding activity are determined with the 2-5A probe in both a filter binding assay, Knight, M. et al., Nature, 288: 189-192 (1980), and the uv crosslinking assay, Nolan-Sorden, N. L. et al., Anal. Biochem., 184: 298-304 (1990), with similar results. […]

For the next data set, the system named is poly(C). Briefly: ribonuclease assay with 2-5A-cellulose, poly(C) substrate. It counts as biochemical. Conditions: isolated on 2-5A-cellulose. The procedure:
(§1) FIG. 5B is reticulocyte lysate pretreated to remove endogeous 2-5A-dependent RNase and is incubated in the absence of added mRNA (.box-solid.), in the presence of human 2-5A-dependent RNase mRNA without inhibitor (.smallcircle., .quadrature.) or in the presence of both 2-5A-dependent RNase mRNA and cycloheximide (50 μg per ml (.circle-solid.). See Example. Subsequently, the recombinant 2-5A-dependent RNase (or controls) is adsorbed to 2-5A-cellulose and ribonuclease assays are performed after extensive washing of the matrix to reduce general nuclease activity. Radiolabeled substrate RNA was either poly(U) (.smallcircle., .circle-solid., .box-solid.) or poly(C) (.quadrature.).
(§2) Ribonuclease assays with recombinant 2-5A-dependent RNase are performed after immobilizing and purifying the translation product on the activating affinity matrix, 2-5A-cellulose. It was previously shown that murine L cell 2-5A-dependent RNase bound to 2-5A-cellulose, resulting in ribonuclease activity against poly(U) but not poly(c). […]
(§3) Briefly, lysates are adsorbed to about […] of 2-5A-cellulose on ice for about two hours. […] The matrix is then incubated with poly(U)-[^32 P]Cp or poly(C)-[^32 P]Cp (both at about 16 μM in nucleotide equivalents) at about 30° C. and the levels of acid-precipitable radioactive RNA are determined by filtration on glass-fiber filters.

In the next data set the test system is poly(U). Briefly: ribonuclease assay with 2-5A-cellulose, poly(U) substrate. It counts as biochemical. The procedure:
as §1, §2, §3

With `Nc1ncnc2c1ncn2[C@@H]1O[C@H](COP(=O)(O)OP(=O)(O)OP(=O)(O)O)[C@@H](O)[C@H]1O` [ATP], in the data set on 2-5A-dependent RNase, the “stimulatory effect on 2-5A-dependent RNase activity” value was “two-fold”.

B1: Clone ZB15: murine 2-5A-dependent RNase deletion mutant, amino acids 1 to 218, both P-loop motifs deleted (protein, UniProt Q05921 1-218, looked up, fragment)
chain: METPDYNTPQGGTPSAGSQRTVVEDDSSLIKAVQKGDVVRVQQLLEKGADANACEDTWGWTPLHNAVQAGRVDIVNLLLSHGADPHRRKKNGATPFIIAGIQGDVKLLEILLSCGADVNECDENGFTAFMEAAERGNAEALRFLFAKGANVNLRRQTTKDKRRLKQGGATALMSAAEKGHLEVLRILLNDMKAEVDARDNMGRNALIRTLLNWDCENV
With B1, in the data set on 2-5A probe, the “2-5A binding activity (in words)” value was “completely lacking in 2-5A binding activity”.

B2: recombinant human 2-5A-dependent RNase: full-length human 2-5A-dependent RNase, amino acids 1-741 in Table I, produced in vitro in reticulocyte lysate (protein, UniProt Q05823 1-741, looked up)
chain: MESRDHNNPQEGPTSSSGRRAAVEDNHLLIKAVQNEDVDLVQQLLEGGANVNFQEEEGGWTPLHNAVQMSREDIVELLLRHGADPVLRKKNGATPFILAAIAGSVKLLKLFLSKGADVNECDFYGFTAFMEAAVYGKVKALKFLYKRGANVNLRRKTKEDQERLRKGGATALMDAAEKGHVEVLKILLDEMGADVNACDNMGRNALIHALLSSDDSDVEAITHLLLDHGADVNVRGERGKTPLILAVEKKHLGLVQRLLEQEHIEINDTDSDGKTALLLAVELKLKKIAELLCKRGASTDCGDLVMTARRNYDHSLVKVLLSHGAKEDFHPPAEDWKPQSSHWGAALKDLHRIYRPMIGKLKFFIDEKYKIADTSEGGIYLGFYEKQEVAVKTFCEGSPRAQREVSCLQSSRENSHLVTFYGSESHRGHLFVCVTLCEQTLEACLDVHRGEDVENEEDEFARNVLSSIFKAVQELHLSCGYTHQDLQPQNILIDSKKAAHLADFDKSIKWAGDPQEVKRDLEDLGRLVLYVVKKGSISFEDLKAQSNEEVVQLSPDEETKDLIHRLFHPGEHVRDCLSDLLGHPFFWTWESRYRTLRNVGNESDIKTRKSESEILRLLQPGPSEHSKSFDKWTTKINECVMKKMNKFYEKRGNFYQNTVGDLLKFIRNLGEHIDEEKHKKMKLKIGDPSLYFQKTFPDLVIYVYTKLQNTEYRKHFPQTHSPNKPQCDGAGGASGLASPGC
modifications: full-length
Regarding B2, the “ribonuclease activity against poly(C) (in words)” value with poly(C) is “none”. Also, the “half-life of poly(U) degradation” value in the data set on poly(U) (enzyme from reticulocyte lysate bound to 2-5A-cellulose, about 30° C.) was “about 10 minutes”. The “ribonuclease activity towards poly(U) (in words)” value in the data set on poly(U) (isolated on 2-5A-cellulose) is given as “potent ribonuclease activity”.
